Numbered stars: 1 amine (or outer) side, 2 acyl side, 3 side chain; on linkers, the order of the positions; unused ones are H or OH. Square brackets hold non-standard residues; d marks the D form. * marks the point of attachment. DOTA = O=C(O)CN1CCN(CC(=O)O)CCN(CC(=O)*)CCN(CC(=O)O)CC1; Ttds = O=C(CCC(=O)[*:2])NCCCOCCOCCOCCCN[*:1]; Glutaryl = O=C(CCCC(=O)[*:2])[*:1]; Tle = CC(C)(C)[C@H](N)C(=O)O; 1206 = not defined here; GABA = NCCCC(=O)O
Assays:
[1] = biological target: NTR1 on HT29 or NTR1-expressing HEK293 cells (UniProt P30989); assay: cell-based or functional assay
[2] = biological target: neurotensin receptor 1 (NTR1), human, prepared from CHO cells recombinantly expressing the human receptor (human) (UniProt P30989); assay: radioligand binding assay (Cerep 0109): displacement of 0.05 nM 125I-(Tyr3-neurotensin) from human NTR1 prepared from CHO cells
[3] = biological target: T1, delta 2 (DOP) (h), delta2 opioid receptor (human (printed as (h))), P41143; assay: Cerep ExpresSProfile radioligand competition binding, reference compound (agonist radioligand)
T1 chain: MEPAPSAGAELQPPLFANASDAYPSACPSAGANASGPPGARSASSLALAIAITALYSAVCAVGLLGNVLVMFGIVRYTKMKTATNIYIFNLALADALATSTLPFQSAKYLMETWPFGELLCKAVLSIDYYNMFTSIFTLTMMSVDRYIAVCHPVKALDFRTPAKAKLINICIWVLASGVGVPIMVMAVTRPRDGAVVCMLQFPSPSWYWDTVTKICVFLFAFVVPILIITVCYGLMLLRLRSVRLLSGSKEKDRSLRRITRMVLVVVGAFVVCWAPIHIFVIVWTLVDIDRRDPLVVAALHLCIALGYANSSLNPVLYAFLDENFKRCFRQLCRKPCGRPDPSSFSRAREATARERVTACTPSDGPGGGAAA

Sequence of neurotensin receptor 1 (NTR1), human, prepared from CHO cells recombinantly expressing the human receptor (human) (P30989 whole entry): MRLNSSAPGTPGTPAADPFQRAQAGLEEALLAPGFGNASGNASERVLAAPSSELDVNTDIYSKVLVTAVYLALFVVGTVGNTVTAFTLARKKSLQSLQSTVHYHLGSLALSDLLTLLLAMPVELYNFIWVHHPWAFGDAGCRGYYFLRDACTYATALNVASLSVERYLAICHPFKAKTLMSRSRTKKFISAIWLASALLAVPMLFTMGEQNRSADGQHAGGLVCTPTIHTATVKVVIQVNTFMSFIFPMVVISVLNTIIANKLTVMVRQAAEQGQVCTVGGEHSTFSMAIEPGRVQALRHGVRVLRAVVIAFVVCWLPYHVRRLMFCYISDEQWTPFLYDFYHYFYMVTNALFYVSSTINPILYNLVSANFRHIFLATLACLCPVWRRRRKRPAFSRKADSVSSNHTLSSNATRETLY
Sequence of NTR1 on HT29 or NTR1-expressing HEK293 cells (P30989 whole entry): as above

Binder | Agonistic Effect EC50 [nM], functional Ca2+ mobilisation assay [1] [nM] | Antagonistic Effect IC50 [nM], functional Ca2+ mobilisation assay [1] [nM] | IC50 [2] [nM] | Ki [3] [nM]
{1206-Glutaryl}-[Ttds][Ttds][Ttds]K(DOTA)[Ttds][Ttds][Ttds][GABA][dR]RPY[Tle]L-OH (reading uncertain) [1206-Glutar-Ttds3-Lys(DOTA)-Ttds3-GABA-arg-Arg-Pro-Tyr-Tle-Leu-OH (18)] | > 50000 | 3.8 | 2.7 | 
{1206-Glutaryl}-[Ttds]K(DOTA)[Ttds][GABA]RRPY[Tle]L-OH (reading uncertain) [1206-Glutar-Ttds-Lys(DOTA)-Ttds-GABA-Arg-Arg-Pro-Tyr-Tle-Leu-OH (16)] | 4 | 3.8 | 0.14 | 
{1206-Glutaryl}-[Ttds]K(DOTA)[Ttds][GABA][dR]RPY[Tle]L-OH (reading uncertain) [1206-Glutar-Ttds-Lys(DOTA)-Ttds-GABA-arg-Arg-Pro-Tyr-Tle-Leu-OH (17)] | 7 | 3.4 | 0.32 | 
YCGFC (modifications not checked) [DPDPE] |  |  |  | 2

Reference: patent US20170119913A1
